Consider one molecule from article PMC12440816, “Cell cycle regulation has shaped replication origins in budding yeast” (Nature Structural & Molecular Biology, 2025).

One experiment addresses T1, Mcm3 (Saccharomyces cerevisiae, UniProt P24279 1-971).
T1 construct: Mcm3 of S. cerevisiae; Subunit of m5, for the subunit pairs of the SH structure; source: subunit of purified MCM–Cdt1 (previously described methods)
Put plainly: cryo-EM structure; SH and DH on nucleosome-flanked ARS1 (15 nM) loaded by Orc6-4A ORC (40 nM) pre-phosphorylated by CDK, Cdc6 (40 nM), MCM–Cdt1 (80 nM), 2.2 mM ATP, 30 °C, 30 min. The conditions noted are these: both partners purified.

The target of a further experiment is T2, Mcm4 (Saccharomyces cerevisiae, UniProt P30665 1-933).
T2 construct: Mcm4 of S. cerevisiae; Subunit of m5, for the subunit pairs of the SH structure; source: subunit of purified MCM–Cdt1 (previously described methods)
T2 sequence: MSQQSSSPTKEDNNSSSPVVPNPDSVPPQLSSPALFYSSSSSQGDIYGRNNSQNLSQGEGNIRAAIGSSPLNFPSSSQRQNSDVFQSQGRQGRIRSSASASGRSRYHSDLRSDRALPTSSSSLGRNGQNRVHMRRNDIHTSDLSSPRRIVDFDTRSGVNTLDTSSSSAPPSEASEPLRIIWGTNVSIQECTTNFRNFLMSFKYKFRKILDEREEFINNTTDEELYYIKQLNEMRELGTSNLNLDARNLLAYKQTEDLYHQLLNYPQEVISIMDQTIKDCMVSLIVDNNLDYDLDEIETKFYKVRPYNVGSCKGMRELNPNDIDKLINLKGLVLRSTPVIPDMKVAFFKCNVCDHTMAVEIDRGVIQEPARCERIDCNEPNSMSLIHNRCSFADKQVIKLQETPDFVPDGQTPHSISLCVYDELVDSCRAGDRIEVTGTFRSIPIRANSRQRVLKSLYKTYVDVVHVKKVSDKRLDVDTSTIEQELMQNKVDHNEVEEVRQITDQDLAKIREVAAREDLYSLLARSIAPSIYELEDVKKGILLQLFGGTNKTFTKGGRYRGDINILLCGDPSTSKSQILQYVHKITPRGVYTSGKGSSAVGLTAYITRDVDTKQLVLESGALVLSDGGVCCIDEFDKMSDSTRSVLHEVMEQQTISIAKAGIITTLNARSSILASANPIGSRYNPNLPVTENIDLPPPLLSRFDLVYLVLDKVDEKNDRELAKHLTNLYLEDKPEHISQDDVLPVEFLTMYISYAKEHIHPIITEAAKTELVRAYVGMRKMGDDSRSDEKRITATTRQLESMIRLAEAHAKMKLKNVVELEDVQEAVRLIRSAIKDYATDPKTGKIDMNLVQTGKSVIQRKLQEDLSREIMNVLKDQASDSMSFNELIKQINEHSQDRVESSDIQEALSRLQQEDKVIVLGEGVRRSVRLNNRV
The description is as above. As to conditions: both partners purified.

T1 sequence (P24279 whole entry): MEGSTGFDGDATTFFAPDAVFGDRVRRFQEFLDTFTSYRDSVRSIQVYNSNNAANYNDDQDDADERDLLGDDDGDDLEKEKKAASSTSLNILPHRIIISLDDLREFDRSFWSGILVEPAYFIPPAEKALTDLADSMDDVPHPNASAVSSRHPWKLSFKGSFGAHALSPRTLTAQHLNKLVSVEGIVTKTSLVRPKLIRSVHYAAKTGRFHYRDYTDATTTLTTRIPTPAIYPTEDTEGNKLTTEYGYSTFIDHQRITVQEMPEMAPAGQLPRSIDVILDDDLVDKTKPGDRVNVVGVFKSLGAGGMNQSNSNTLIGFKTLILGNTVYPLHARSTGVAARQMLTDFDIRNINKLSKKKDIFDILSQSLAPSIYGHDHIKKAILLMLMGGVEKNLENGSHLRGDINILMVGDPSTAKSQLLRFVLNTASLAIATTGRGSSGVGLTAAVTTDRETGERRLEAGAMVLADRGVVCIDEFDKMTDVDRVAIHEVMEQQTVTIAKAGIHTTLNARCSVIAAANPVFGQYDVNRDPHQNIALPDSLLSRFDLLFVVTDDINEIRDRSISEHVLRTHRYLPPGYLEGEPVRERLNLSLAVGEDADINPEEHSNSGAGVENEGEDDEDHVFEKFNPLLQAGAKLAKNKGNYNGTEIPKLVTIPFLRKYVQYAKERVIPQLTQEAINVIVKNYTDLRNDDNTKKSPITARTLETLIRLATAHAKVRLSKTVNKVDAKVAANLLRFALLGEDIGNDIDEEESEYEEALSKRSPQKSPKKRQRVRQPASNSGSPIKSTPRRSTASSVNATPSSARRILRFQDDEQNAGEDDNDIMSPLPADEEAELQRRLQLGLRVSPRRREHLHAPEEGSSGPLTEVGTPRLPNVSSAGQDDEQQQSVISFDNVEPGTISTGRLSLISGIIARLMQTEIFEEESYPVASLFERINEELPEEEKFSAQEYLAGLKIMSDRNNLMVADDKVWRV

B1: Mcm7 (natural protein, Saccharomyces cerevisiae)
chain: MSAALPSIQLPVDYNNLFNEITDFLVTFKQDTLSSDATRNENEDENLDAENIEQHLLEKGPKYMAMLQKVANRELNSVIIDLDDILQYQNEKFLQGTQADDLVSAIQQNANHFTELFCRAIDNNMPLPTKEIDYKDDVLDVILNQRRLRNERMLSDRTNEIRSENLMDTTMDPPSSMNDALREVVEDETELFPPNLTRRYFLYFKPLSQNCARRYRKKAISSKPLSVRQIKGDFLGQLITVRGIITRVSDVKPAVEVIAYTCDQCGYEVFQEVNSRTFTPLSECTSEECSQNQTKGQLFMSTRASKFSAFQECKIQELSQQVPVGHIPRSLNIHVNGTLVRSLSPGDIVDVTGIFLPAPYTGFKALKAGLLTETYLEAQFVRQHKKKFASFSLTSDVEERVMELITSGDVYNRLAKSIAPEIYGNLDVKKALLLLLVGGVDKRVGDGMKIRGDINVCLMGDPGVAKSQLLKAICKISPRGVYTTGKGSSGVGLTAAVMKDPVTDEMILEGGALVLADNGICCIDEFDKMDESDRTAIHEVMEQQTISISKAGINTTLNARTSILAAANPLYGRYNPRLSPLDNINLPAALLSRFDILFLMLDIPSRDDDEKLAEHVTYVHMHNKQPDLDFTPVEPSKMREYIAYAKTKRPVMSEAVNDYVVQAYIRLRQDSKREMDSKFSFGQATPRTLLGIIRLSQALAKLRLADMVDIDDVEEALRLVRVSKESLYQETNKSKEDESPTTKIFTIIKKMLQETGKNTLSYENIVKTVRLRGFTMLQLSNCIQEYSYLNVWHLINEGNTLKFVDDGTMDTDQEDSLVSTPKLAPQTTASANVSAQDSDIDLQDA
notes: Mcm7 of S. cerevisiae; Subunit of m5, for the subunit pairs of the SH structure; source: subunit of purified MCM–Cdt1 (previously described methods)
For the molecule B1, the binding result in the experiment with Mcm3 and with Mcm4 was “binds” each time.
